Reference: patent publication US20150344570A1 (published 2015)
Substitutions are numbered along the chain they refer to. Names and notes keep the numbering of the source. Blank lines part the entries; values can stand above or below the binder they belong to.

Key:
[1] = target: FcγRIIIa extracellular domain with C-terminal His tag (human, UniProt P08637 17-208); test: SPR (Biacore), relative binding activity; GpH7-A5/GpH7-B3/GpL16-k0 = 100
Target sequence in this assay (P08637 17-208): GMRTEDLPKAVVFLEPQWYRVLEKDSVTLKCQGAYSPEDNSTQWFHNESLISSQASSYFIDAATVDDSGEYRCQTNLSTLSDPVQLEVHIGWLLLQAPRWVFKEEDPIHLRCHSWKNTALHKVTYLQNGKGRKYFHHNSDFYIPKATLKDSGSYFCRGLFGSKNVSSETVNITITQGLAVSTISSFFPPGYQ

[2] = target: T1, FcγRIIIa extracellular domain with C-terminal His tag (human, UniProt P08637 17-208); test: SPR (Biacore), ratio of KD for FcγRIIIa against GpH7-A5/GpH7-B3/GpL16-k0
T1 construct: extracellular domain; also called FcgRIIIa; 3a; not shown: His tag attached to the C terminus
From the text: Then, the present inventors introduced I332E into only one H chain, and assessed whether the Tm is elevated as compared to when I332E is introduced into both H chains. Expression vectors inserted with GpH7-A44 (SEQ ID NO: 49) and GpH7-B80 (SEQ ID NO: 50) resulting from the introduction of I332E into GpH7-A5 and GpH7-B3, respectively, were constructed. They were combined with GpH7-B3, GpH7-A5, and GpL16-k0 to express and prepare the following antibodies according to the method described in Reference Example 1: the heterodimerized antibodies GpH7-A5/GpH7-B80/GpL16-k0 and GpH7-A44/GpH7-B3/GpL16-k0 in which only one of the H chains was introduced with I332E, and the homodimerized antibody GpH7-A44/GpH7-B80/GpL16-k0 in which both of the H chains were introduced with I332E. […] Each antibody was assessed for the FcγRIIIa-binding activity according to the method described in Reference Example 2. In addition, the antibodies were compared for the Tm of CH2 domain by thermal shift assay according to the method described in Reference Example 5 (Tables 28 and 29).
(§1) Analysis of interaction between objective antibody and the FcγR was carried out using Biacore T100 (GE Healthcare). HBS-EP+ (GE Healthcare) was used as the running buffer, and the measurement temperature was set to 25° C. Chips produced by immobilizing the antigen peptide by the amine coupling method to a Series S Sencor Chip CM5 (GE Healthcare), or alternatively, chips produced by allowing preliminarily biotinylated antigen peptides to interact with and immobilize onto a Series S Sensor Chip SA (certified) (GE Healthcare) were used. Antibodies of interest were captured onto an antigen peptide-immobilized chip, and allowed to interact to each FcγR diluted with running buffer. To regenerate and repeatedly use the chip, the antibodies captured on the chip were washed off by reacting 10 mM glycine-HCl, pH 1.5.
The FcγR-binding activity of each antibody was assessed primarily using as an indicator the FcγR-binding activity and dissociation constant for FcγR.
T1 sequence (P08637 17-208): as above

[3] = target: T2, FcγRIIIa (human, UniProt P08637 17-208); test: ratio of SPR KDs: KD of GpH7-G1d/GpL16-k0 divided by KD of this antibody
T2 construct: extracellular domain; also called FcgRIIIa; CD16A; not shown: His tag attached to the C terminus
T2 sequence (P08637 17-208): as above
Method: (§2) The prepared antibodies were compared for the FcγRIIIa-binding activity using, as an indicator, KD for FcγRIIIa that was determined according to the method described in Reference Example 2.
as §1
(§3) Specifically, to calculate association rate constant ka (L/mol/s) and dissociation rate constant kd (1/s), sensorgrams obtained by measurement were processed for global fitting by Biacore Evaluation Software using 1:1 Langmuir binding model and dissociation constant KD (mol/1) was calculated from the resulting values.

[4] = target: T2, FcγRIIIa; test: ratio of SPR KDs: KD of GpH7-A5/GpH7-B3/GpL16-k0 divided by KD of this antibody
Method: as §2, §1, §3

[5] = target: T2, FcγRIIIa; test: SPR (Biacore), antibody captured on antigen-peptide chip, FcγR as analyte; relative binding amount
Method: GpH7-TA8 (SEQ ID NO: 33) and GpH7-B12 (SEQ ID NO: 12) resulting from the introduction of P329R into GpH7-TA7 and GpH7-B3, respectively, were prepared according to the method described in Reference Example 1.
as §1

[6] = target: T2, FcγRIIIa; test: as above; remark: listed apart in the source
Method: Specifically, GpH7-TA7 and GpH7-TA45 (SEQ ID NO: 32) resulting from the introduction of L234Y, G236W, and S298A into GpH7-A5 and GpH7-B3, respectively, were prepared according to the method described in Reference Example 1. […] These antibodies were compared for the FcγRIIIa binding according to the method described in Reference Example 2 (Table 10).
as §1

B2: GpH7-A5/GpH7-B3/GpL16-k0 (antibody, human IgG1, kappa)
heavy 1: not shown
heavy 2: not shown
light: DIVMTQSPLSLPVTPGEPASISCQASESLVHSNRNTYLHWYLQKPGQSPQLLIYKVSNRFSGVPDRFSGSGSGTDFTLKISRVEAEDVGVYYCSQNTHVPPTFGQGTKVEIERTVAAPSVFIFPPSDEQLKSGTASVVCLLNNFYPREAKVQWKVDNALQSGNSQESVTEQDSKDSTYSLSSTLTLSKADYEKHKVYACEVTHQGLSSPVTKSFNRGEC
notes: also called HeCon Ab; control heterodimerized antibody
KD ratio [2]: 1 fold (KD of GpH7-A5/GpH7-B3/GpL16-k0 divided by KD of the antibody)

B5: GpH7-A5/GpH7-B3/GpL16-k0 (antibody, human IgG1, kappa)
heavy 1: not shown
heavy 2: not shown
light: B2 light
notes: as for B2
KD ratio 1 [3]: 0.75 fold | KD ratio 2 [4]: 1 fold | FcγRIIIa BINDING ACTIVITY (relative) [5]: 100 relative, GpH7-A5/GpH7-B3/GpL16-k0 = 100 | FcγR BINDING ACTIVITY (relative FcγRIIIa binding) [6]: 100 relative, GpH7-A5/GpH7-B3/GpL16-k0 = 100

B6: GpH7-A44/GpH7-B3/GpL16-k0 (antibody, human IgG1, kappa)
heavy 1: QVQLVQSGAEVKKPGASVTVSCKASGYTFTDYEMHWIRQPPGEGLEWIGAIDPKTGDTAYSESFQDRVTLTADKSTSTAYMELSSLTSEDTAVYYCTRFYSYTYWGQGTLVTVSSASTKGPSVFPLAPSSKSTSGGTAALGCLVKDYFPEPVTVSWNSGALTSGVHTFPAVLQSSGLYSLSSVVTVPSSSLGTQTYICNVNHKPSNTKVDKKVEPKSCDKTHTCPPCPAPELLGGPSVFLFPPKPKDTLMISRTPEVTCVVVDVSHEDPEVKFNWYVDGVEVHNAKTKPREEQYNSTYRVVSVLTVLHQDWLNGKEYKCKVSNKALPAPEEKTISKAKGQPREPQVYTLPPSRKELTKNQVSLTCLVKGFYPSDIAVEWESNGQPENNYKTTPPVLDSDGSFFLYSKLTVDKSRWQQGNVFSCSVMHEALHNRYTQKSLSLSP
heavy 2: not shown
light: B2 light
notes: Heterodimerized antibody with I332E in one H chain only
KD ratio [2]: 4.4 fold (KD of GpH7-A5/GpH7-B3/GpL16-k0 divided by KD of the antibody)

B9: GpH7-A5/GpH7-B80/GpL16-k0 (antibody, human IgG1, kappa)
heavy 1: not shown
heavy 2: not shown
light: B2 light
notes: as for B6
KD ratio [2]: 3.4 fold (KD of GpH7-A5/GpH7-B3/GpL16-k0 divided by KD of the antibody)

Next, values leading:

FcγRIIIa BINDING ACTIVITY [1]: 151%
B1: GpH7-TA4/GpH7-B3-15-02A/GpL16-k0 (antibody, human IgG1, kappa)
heavy 1: B6 heavy 1 with L232Y, G234W, E330I
heavy 2: not shown
light: B2 light
notes: H1 L234Y and G236W; H2 S298A

FcγRIIIa BINDING ACTIVITY [1]: 103%
B3: GpH7-TA6/GpH7-B3-01-15Y/GpL16-k0 (antibody, human IgG1, kappa)
heavy 1: B6 heavy 1 with G234W, S296A, E330I
heavy 2: not shown
light: B2 light
notes: H1 G236W and S298A; H2 L234Y

FcγRIIIa BINDING ACTIVITY [1]: 97%
B4: GpH7-TA5/GpH7-B3-03-20W/GpL16-k0 (antibody, human IgG1, kappa)
heavy 1: B6 heavy 1 with L232Y, S296A, E330I
heavy 2: not shown
light: B2 light
notes: H1 L234Y and S298A; H2 G236W

KD ratio 1 [3]: 3.8 fold | KD ratio 2 [4]: 5.1 fold | FcγRIIIa BINDING ACTIVITY (relative) [5]: 210 relative, GpH7-A5/GpH7-B3/GpL16-k0 = 100 | FcγR BINDING ACTIVITY (relative FcγRIIIa binding) [6]: 210 relative, GpH7-A5/GpH7-B3/GpL16-k0 = 100
B7: GpH7-TA7/GpH7-B3/GpL16-k0 (antibody, human IgG1, kappa)
heavy 1: B6 heavy 1 with L232Y, G234W, S296A, E330I
heavy 2: not shown
light: B2 light
notes: Anti-glypican-3 IgG1 heterodimer; L234Y/G236W/S298A in H1 only

KD ratio [2]: 7.1 fold (KD of GpH7-A5/GpH7-B3/GpL16-k0 divided by KD of the antibody)
B8: GpH7-A44/GpH7-B80/GpL16-k0 (antibody, human IgG1, kappa)
heavy 1: B6 heavy 1
heavy 2: not shown
light: B2 light
